According to PMC9242963, “FFF-based high-throughput sequence shortlisting to support the development of aptamer-based analytical strategies”:

Target: lysozyme (UniProt P00698 19-147)
Experiment: AF4-UV (asymmetrical flow field-flow fractionation); concentration-dependent; among highest affinity with A80; PBS-Mg2+ buffer (also mobile phase; composition, pH and temperature not given in the material); 10 uL of 5 uM aptamer + 10 uL of 5, 10, 25 or 50 uM protein (1:1 to 1:10); detection at 260 nm; n = 3
Conditions: protein: commercial; label: none

Chain of lysozyme (P00698 19-147): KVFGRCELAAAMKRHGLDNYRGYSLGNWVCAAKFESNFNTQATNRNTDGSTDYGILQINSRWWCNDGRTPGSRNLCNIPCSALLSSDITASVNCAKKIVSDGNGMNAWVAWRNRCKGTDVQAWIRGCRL

GCAGCTAAGCAGGCGGCTCACAAAACCATTCGCATGCGGC (ssDNA) [A40]
binding result: binds
